B1: CD3 × CD33-BspAb85 (bispecific antibody)
chain 1: EVQLVESGGGLVKPGGSLRLSCAASGFTFSSYSMNWVRQAPGKCLEWVSSISRSSGYIFYADSVKGRFTISRDNAKNSLYLQMNSLRAEDTAVYYCVRERVGAGFDYWGQGTLVTVSSGGGGSGGGGSGGGGSGGGGSNFMLTQPHSVSESPGKTVAISCTRSSGSIASNYVQWYQQRPGSSPTAVIYEDNQRPSGVPDRFSGSIDSSSNSAFLTISGLKTEDEADYYCQSYDSSNRVFGCGTKLTVLDKTHTCPPCPAPEFEGGPSVFLFPPKPKDTLMISRTPEVTCVVVDVSHEDPEVKFNWYVDGVEVHNAKTKPREEQYNSTYRVVSVLTVLHQDWLNGKEYKCKVSNKALPASIEKTISKAKGQPREPQVYTLPPCREEMTKNQVSLWCLVKGFYPSDIAVEWESNGQPENNYKTTPPVLDSDGSFFLYSKLTVDKSRWQQGNVFSCSVMHEALHNHYTQKSLSLSPGK
chain 2: EVQLVQSGAEVKKPGSSVKVSCKASGYTITDSNIHWVRQAPGQSLEWIGYIYPYNGGTDYNQKFKNRATLTVDNPTNTAYMELSSLRSEDTAFYYCVNGNPWLAYWGQGTLVTVSSASTKGPSVFPLAPSSKSTSGGTAALGCLVKDYFPEPVTVSWNSGALTSGVHTFPAVLQSSGLYSLSSVVTVPSSSLGTQTYICNVNHKPSNTKVDKRVEPKSCDKTHTCPPCPAPEFEGGPSVFLFPPKPKDTLMISRTPEVTCVVVDVSHEDPEVKFNWYVDGVEVHNAKTKPREEQYNSTYRVVSVLTVLHQDWLNGKEYKCKVSNKALPASIEKTISKAKGQPREPQVCTLPPSREEMTKNQVSLSCAVKGFYPSDIAVEWESNGQPENNYKTTPPVLDSDGSFFLVSKLTVDKSRWQQGNVFSCSVMHEALHNRFTQKSLSLSPGK
chain 3: DIQLTQSPSTLSASVGDRVTITCRASESLDNYGIRFLTWFQQKPGKAPKLLMYAASNQGSGVPSRFSGSGSGTEFTLTISSLQPDDFATYYCQQTKEVPWSFGQGTKVEVKRTVAAPSVFIFPPSDEQLKSGTASVVCLLNNFYPREAKVQWKVDNALQSGNSQESVTEQDSKDSTYSLSSTLTLSKADYEKHKVYACEVTHQGLSSPVTKSFNRGEC
B2: CD3 × CD33-BspAb86 (bispecific antibody)
chain 1: EVQLVESGGGLVKPGGSLRLSCAASGFTFSSYSMNWVRQAPGKCLEWVSSISRSGTYIYYADSVKGRFTISRDNAKNSLYLQMNSLRAEDTAVYYCARERWELLYFDYWGQGTLVTVSSGGGGSGGGGSGGGGSGGGGSQTVVTQEPSLTVSPGGTVTLTCASSTGAVTSGYYPNWFQQKPGQAPRALIYSTSNKHSWTPARFSGSLLGGKAALTLSGVQPEDEAEYYCLLYYGGAYVFGCGTKVTVLDKTHTCPPCPAPEFEGGPSVFLFPPKPKDTLMISRTPEVTCVVVDVSHEDPEVKFNWYVDGVEVHNAKTKPREEQYNSTYRVVSVLTVLHQDWLNGKEYKCKVSNKALPASIEKTISKAKGQPREPQVYTLPPCREEMTKNQVSLWCLVKGFYPSDIAVEWESNGQPENNYKTTPPVLDSDGSFFLYSKLTVDKSRWQQGNVFSCSVMHEALHNHYTQKSLSLSPGK
chain 2: B1 chain 2
chain 3: B1 chain 3
B3: CD3 × CD33-BspAb90 (bispecific antibody)
chain 1: not shown
chain 2: B1 chain 2
chain 3: B1 chain 3
B4: CD3 × CD33-BspAb115 (bispecific antibody)
chain 1: NFMLTQPHSVSESPGKTVTISCTRTSGSIASNYVQWYQQRPGSSPTTVIYEDNQRPSGVPDRFSGSIDSSSNSASLTISGLKTEDEAAYYCQSYDRSNRVFGCGTKLTVLGGGGSGGGGSGGGGSGGGGSQVQLQESGPGLVKPSETLSLTCTVSGGSISSYYWSWIRQPAGKCLEWIGRIYTSGSTKYNPSLKSRVTMSVDTSKNQFSLKLISVTAADTAVYFCARERIRDLYFDYWGQGTLVTVSSDKTHTCPPCPAPEFEGGPSVFLFPPKPKDTLMISRTPEVTCVVVDVSHEDPEVKFNWYVDGVEVHNAKTKPREEQYNSTYRVVSVLTVLHQDWLNGKEYKCKVSNKALPASIEKTISKAKGQPREPQVYTLPPCREEMTKNQVSLWCLVKGFYPSDIAVEWESNGQPENNYKTTPPVLDSDGSFFLYSKLTVDKSRWQQGNVFSCSVMHEALHNHYTQKSLSLSPGK
chain 2: B1 chain 2
chain 3: B1 chain 3
B5: Low affinity Control (Control Humanized anti-CD3 (low affinity) scFv-Fc knob/TM x gemtuzumab) (bispecific antibody)
chain: EVQLVESGGGLVQPGGSLRLSCAASGFTFSTYAMNWVRQAPGKGLEWVGRIRSKYNNYATYYADSVKGRFTISRDDSKNTLYLQMNSLRAEDTAVYYCVRHGNFGDSYVSWFDYWGQGTLVTVSSGKPGSGKPGSGKPGSGKPGSQAVVTQEPSLTVSPGGTVTLTCGSSTGAVTTSNYANWVQQKPGKSPRGLIGGTNKRAPGVPARFSGSLLGGKAALTISGAQPEDEADYYCALWYSNHWVFGGGTKLTVLGGGGSDKTHTCPPCPAPEFEGGPSVFLFPPKPKDTLMISRTPEVTCVVVDVSHEDPEVKFNWYVDGVEVHNAKTKPREEQYNSTYRVVSVLTVLHQDWLNGKEYKCKVSNKALPASIEKTISKAKGQPREPQVYTLPPCREEMTKNQVSLWCLVKGFYPSDIAVEWESNGQPENNYKTTPPVLDSDGSFFLYSKLTVDKSRWQQGNVFSCSVMHEALHNHYTQKSLSLSPGK
heavy: B1 chain 2
light: B1 chain 3
B6: Gemtuzumab (antibody, V domains shown)
VH: EVQLVQSGAEVKKPGSSVKVSCKASGYTITDSNIHWVRQAPGQSLEWIGYIYPYNGGTDYNQKFKNRATLTVDNPTNTAYMELSSLRSEDTAFYYCVNGNPWLAYWGQGTLVTVSS
VL: DIQLTQSPSTLSASVGDRVTITCRASESLDNYGIRFLTWFQQKPGKAPKLLMYAASNQGSGVPSRFSGSGSGTEFTLTISSLQPDDFATYYCQQTKEVPWSFGQGTKVEVKR

Legend:
Assay in all cases: cell-based or functional assay
[1] = biological target: T1, human CD3 (on human Pan-T cells or donor PBMC) (human, UniProt P07766 23-207; P04234 22-171; P09693 23-182; P20963 22-164)
T1 sequence (P07766 23-207, chain 1 of 4): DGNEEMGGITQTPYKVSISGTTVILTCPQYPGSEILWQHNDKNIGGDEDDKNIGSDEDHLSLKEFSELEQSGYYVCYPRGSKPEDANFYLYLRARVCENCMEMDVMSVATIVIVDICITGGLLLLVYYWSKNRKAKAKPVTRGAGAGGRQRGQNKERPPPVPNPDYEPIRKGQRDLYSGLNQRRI
T1 sequence (P04234 22-171, chain 2 of 4): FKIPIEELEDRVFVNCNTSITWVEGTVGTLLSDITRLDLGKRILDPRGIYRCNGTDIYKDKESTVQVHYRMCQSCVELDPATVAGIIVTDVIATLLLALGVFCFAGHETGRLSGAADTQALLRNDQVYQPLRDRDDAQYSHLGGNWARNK
T1 sequence (P09693 23-182, chain 3 of 4): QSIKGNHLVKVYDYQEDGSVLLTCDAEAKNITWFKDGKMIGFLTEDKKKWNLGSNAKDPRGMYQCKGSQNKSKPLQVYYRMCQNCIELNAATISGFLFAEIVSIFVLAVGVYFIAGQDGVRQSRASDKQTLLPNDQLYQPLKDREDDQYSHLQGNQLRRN
T1 sequence (P20963 22-164, chain 4 of 4): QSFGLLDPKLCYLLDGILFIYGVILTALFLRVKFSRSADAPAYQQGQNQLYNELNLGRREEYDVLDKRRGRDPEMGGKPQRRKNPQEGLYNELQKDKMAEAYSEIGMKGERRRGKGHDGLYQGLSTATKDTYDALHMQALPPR

[2] = biological target: T1, human CD3 (on human Pan-T cells or …); remark: listed apart in the source
[3] = biological target: T2, CD3 on human donor PBMC / Pan T effector cells (human, UniProt P07766 23-207; P09693 23-182; P04234 22-171; P20963 22-164)
T2 sequence (P07766 23-207, chain 1 of 4): as the sequence (P07766 23-207, chain 1 of 4) above
T2 sequence (P09693 23-182, chain 2 of 4): as the sequence (P09693 23-182, chain 3 of 4) above
T2 sequence (P04234 22-171, chain 3 of 4): as the sequence (P04234 22-171, chain 2 of 4) above
T2 sequence (P20963 22-164, chain 4 of 4): as the sequence (P20963 22-164, chain 4 of 4) above

[4] = biological target: T2, CD3 on human donor PBMC / Pan T …; remark: listed apart in the source

| Binder | Cytokine Release Assay (IFNγ), Donor 0, EC50 [1] | Cytokine Release Assay (IFNγ), Donor 0, gMFI max [1] | Cytokine Release Assay (IFNγ), Donor 1, gMFI max [1] | Cytokine Release Assay (IFNγ), Donor 2, EC50 [1] | Cytokine Release Assay (IFNγ), Donor 2, gMFI max [1] | Cytokine Release Assay (IFNγ), Donor 3, gMFI max [1] | RTCC Assay, Donor 0, EC50 [2] | RTCC Assay, Donor 0, gMFI max [2] | RTCC Assay, Donor 1, EC50 [2] | RTCC Assay, Donor 1, gMFI max [2] | RTCC Assay, Donor 2, EC50 [2] | RTCC Assay, Donor 2, gMFI max [2] | RTCC Assay, Donor 3, EC50 [2] | RTCC Assay, Donor 3, gMFI max [2] | Cytokine Release Assay (IFNγ), Donor 3, EC50 [1] | Cytokine Release Assay (IL2) Donor 0 EC50 [3] | Cytokine Release Assay (IL2) Donor 0 gMFI max [3] | Cytokine Release Assay (IL2) Donor 1 gMFI max [3] | Cytokine Release Assay (IL2) Donor 2 gMFI max [3] | Cytokine Release Assay (IL2) Donor 3 gMFI max [3] | also measured |
| --- | --- | --- | --- | --- | --- | --- | --- | --- | --- | --- | --- | --- | --- | --- | --- | --- | --- | --- | --- | --- | --- |
| B1 | 0.0832 nM | 983000 gMFI | 8040 gMFI | 0.0468 nM | 31400 gMFI | 104000 gMFI | 0.102 nM | 29900 gMFI | 0.006 nM | 78200 gMFI | 0.028 nM | 64200 gMFI | 0.045 nM | 85600 gMFI | – | – | – | – | – | – | – |
| B2 | 2.35 nM | 573000 gMFI | 4690 gMFI | 2.68 nM | 18500 gMFI | 152000 gMFI | 1.71 nM | 24100 gMFI | 0.151 nM | 67300 gMFI | 0.697 nM | 59100 gMFI | 1.58 nM | 83500 gMFI | 7.93 nM | – | – | – | – | – | – |
| B3 | 0.191 nM | 1.71e+06 gMFI | 10800 gMFI | 0.126 nM | 31600 gMFI | 513000 gMFI | 0.147 nM | 34800 gMFI | 0.012 nM | 76900 gMFI | 0.034 nM | 62300 gMFI | 0.047 nM | 84000 gMFI | 0.0851 nM | – | – | – | – | – | – |
| B4 | 0.0418 nM | 1.6e+06 gMFI | 45100 gMFI | 0.0396 nM | 66800 gMFI | 475000 gMFI | 0.054 nM | 38700 gMFI | 0.006 nM | 63000 gMFI | 0.009 nM | 51900 gMFI | 0.011 nM | 82700 gMFI | 0.0403 nM | – | – | – | – | – | Cytokine Release Assay (IFNγ), Donor 1, EC50 [1]: 0.191 nM |
| B5 | – | – | – | – | – | – | – | – | – | – | – | – | – | – | – | 2.29 nM | 24300 gMFI | 18500 gMFI | 15700 gMFI | 21200 gMFI | Cytokine Release Assay (IL2) Donor 1 EC50 [3]: 10.8 nM; Cytokine Release Assay (IL2) Donor 3 EC50 [3]: 2.92 nM; Cytokine Release Assay (TNFα) Donor 0 EC50 [4]: 0.549 nM; Cytokine Release Assay (TNFα) Donor 0 gMFI max [4]: 222000 gMFI; Cytokine Release Assay (TNFα) Donor 1 gMFI max [4]: 82800 gMFI; Cytokine Release Assay (TNFα) Donor 2 EC50 [4]: 24.6 nM; Cytokine Release Assay (TNFα) Donor 2 gMFI max [4]: 135000 gMFI; Cytokine Release Assay (TNFα) Donor 3 EC50 [4]: 40.7 nM; Cytokine Release Assay (TNFα) Donor 3 gMFI max [4]: 122000 gMFI |
| B6 | – | – | – | – | – | – | – | – | – | – | – | – | – | – | – | 5.36 nM | 12500 gMFI | 12900 gMFI | 10700 gMFI | 12200 gMFI | Cytokine Release Assay (TNFα) Donor 0 gMFI max [4]: 5310 gMFI; Cytokine Release Assay (TNFα) Donor 1 gMFI max [4]: 4430 gMFI; Cytokine Release Assay (TNFα) Donor 2 gMFI max [4]: 3680 gMFI; Cytokine Release Assay (TNFα) Donor 3 gMFI max [4]: 3960 gMFI |
